# Experimental data published in publication PMC2148115.
# Biological target: Tubulin (αβ-tubulin heterodimer) from pig brain (pig) (UniProt P02550)
# Assay: AUC
substance,measurement,value
MAP2C (from UniProt P15146-3 1-467) (natural protein),"percent of the protein in the 19.5 S species, molar ratio to tubulin 0.43:1",21%
same,"percent of the protein in the 28.5 S species, molar ratio to tubulin 0.43:1",26%
